Consider 2 molecules from patent US7531337.

Data set [1] has as its target Acetylated acetyl-CoA synthetase (Acs^Ac), Acs of S. enterica isolated from a cobB- strain (S. enterica) (UniProt Q8ZKF6). Kind of data set: cell-based or functional assay.
The target in data set [2] is T1, Acetylated acetyl-CoA synthetase (Acs^Ac), Acs of S. enterica isolated from a cobB- strain.
T1 chain: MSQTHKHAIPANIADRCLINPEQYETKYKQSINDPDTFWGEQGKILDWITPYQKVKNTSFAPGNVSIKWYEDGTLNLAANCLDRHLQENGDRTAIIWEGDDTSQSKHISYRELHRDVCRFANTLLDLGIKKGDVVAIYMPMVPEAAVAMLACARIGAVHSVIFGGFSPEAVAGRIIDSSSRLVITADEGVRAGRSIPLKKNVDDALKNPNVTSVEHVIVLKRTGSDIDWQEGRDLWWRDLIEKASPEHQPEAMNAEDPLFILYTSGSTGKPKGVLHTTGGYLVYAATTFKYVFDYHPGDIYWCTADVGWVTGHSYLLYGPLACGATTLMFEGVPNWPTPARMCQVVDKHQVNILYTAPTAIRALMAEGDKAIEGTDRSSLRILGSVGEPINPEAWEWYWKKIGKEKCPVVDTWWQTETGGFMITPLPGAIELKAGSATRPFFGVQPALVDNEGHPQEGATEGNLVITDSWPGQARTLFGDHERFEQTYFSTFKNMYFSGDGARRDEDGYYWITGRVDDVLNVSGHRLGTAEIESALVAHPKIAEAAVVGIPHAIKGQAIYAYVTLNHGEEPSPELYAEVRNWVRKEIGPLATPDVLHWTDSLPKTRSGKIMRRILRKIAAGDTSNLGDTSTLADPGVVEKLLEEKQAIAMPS

Where [3] appears, read: scale: pmoles of acetyl-CoA formed min^-1 mg of protein^-1.

“CobB sirtuin of S. enterica (purified, homogeneous) (from UniProt P0A2F2 1-273) (enzyme)”: in data set [1], the Acs Sp. Act. (purified Acs from CobB- host, plus BSA, CobB, NAD+) (nmoles of acetyl-CoA formed min^-1 mg^-1) was found to be 483 and the Acs Sp. Act. (purified Acs from CobB- host, plus CobB, NAD+) (nmoles of acetyl-CoA formed min^-1 mg^-1) came out at 480. In addition, in data set [1] (setting [3]), the Acs Specific Activity (crude cell-free extract of Acs+ cobB- strain, plus 10 µg CobB + NAD+) is 490 and the Acs Specific Activity (crude cell-free extract of Acs+ cobB- strain, plus 10 µg CobB) worked out at 42.

B1: CobB sirtuin of S. enterica (purified, homogeneous) (protein)
chain: MQSRRFHRLSRFRKNKRLLRERLRQRIFFRDRVVPEMMENPRVLVLTGAGISAESGIRTFRAADGLWEEHRVEDVATPEGFARNPGLVQTFYNARRQQLQQPEIQPNAAHLALAKLEEALGDRFLLVTQNIDNLHERAGNRNIIHMHGELLKVRCSQSGQILEWNGDVMPEDKCHCCQFPAPLRPHVVWFGEMPLGMDEIYMALSMADIFIAIGTSGHVYPAAGFVHEAKLHGAHTVELNLEPSQVGSEFEEKHYGPASQVVPEFVDKFLKGL
For B1, in data set [2], the “reactivity of Acs with anti-acetyl-lysine antibody in a time-course immunoblot” value is “The decreased reactivity of Acs with the antibody was dependent on the presence of NAD^+ and CobB in a time-course experiment”.
